From patent US20260015399A1 (Boehringer Ingelheim, published 2026)
*1 amine or outer side, *2 acyl side, *3 side chain or, on linkers, in order; H or OH if unused. Side-chain parts run from the residue outwards. The star is where a group is joined. C18 diacid = O=C(O)CCCCCCCCCCCCCCCCC(=O)*; γGlu = O=C(O)[C@H](CCC(=O)[*:2])N[*:1]; Isovaleryl = CC(C)CC(=O)*; Ahx = NCCCCCC(=O)O

T1: human NPY2 receptor (human, UniProt P49146 1-381)
T1 construct: whole, on cells; also called hNPY2-R; hNPY2R
T1 sequence (looked up): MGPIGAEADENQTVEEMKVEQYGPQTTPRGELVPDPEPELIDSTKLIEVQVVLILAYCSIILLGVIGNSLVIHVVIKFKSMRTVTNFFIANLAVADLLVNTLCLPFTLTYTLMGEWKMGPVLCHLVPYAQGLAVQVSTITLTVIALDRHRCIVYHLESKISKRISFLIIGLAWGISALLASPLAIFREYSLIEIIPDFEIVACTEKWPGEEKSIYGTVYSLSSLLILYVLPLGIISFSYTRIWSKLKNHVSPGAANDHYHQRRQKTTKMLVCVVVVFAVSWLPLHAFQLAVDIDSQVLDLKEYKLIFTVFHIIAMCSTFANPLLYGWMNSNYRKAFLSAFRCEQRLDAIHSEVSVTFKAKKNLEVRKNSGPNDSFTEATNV

B1: Compound 113 (peptide)
peptide: Isovaleryl-APEK([Ahx-γGlu-C18 diacid])PEEDATPEEIQRYYVSLRHYQNWLTRQRY-NH2
SMILES: CC[C@H](C)[C@H](NC(=O)[C@H](CCC(=O)O)NC(=O)[C@H](CCC(=O)O)NC(=O)[C@@H]1CCCN1C(=O)[C@@H](NC(=O)[C@H](C)NC(=O)[C@H](CC(=O)O)NC(=O)[C@H](CCC(=O)O)NC(=O)[C@H](CCC(=O)O)NC(=O)[C@@H]1CCCN1C(=O)[C@H](CCCCNC(=O)CCCCCNC(=O)CC[C@H](NC(=O)CCCCCCCCCCCCCCCCC(=O)O)C(=O)O)NC(=O)[C@H](CCC(=O)O)NC(=O)[C@@H]1CCCN1C(=O)[C@H](C)NC(=O)CC(C)C)[C@@H](C)O)C(=O)N[C@@H](CCC(N)=O)C(=O)N[C@@H](CCCNC(=N)N)C(=O)N[C@@H](Cc1ccc(O)cc1)C(=O)N[C@@H](Cc1ccc(O)cc1)C(=O)N[C@H](C(=O)N[C@@H](CO)C(=O)N[C@@H](CC(C)C)C(=O)N[C@@H](CCCNC(=N)N)C(=O)N[C@@H](Cc1c[nH]cn1)C(=O)N[C@@H](Cc1ccc(O)cc1)C(=O)N[C@@H](CCC(N)=O)C(=O)N[C@@H](CC(N)=O)C(=O)N[C@@H](Cc1c[nH]c2ccccc12)C(=O)N[C@@H](CC(C)C)C(=O)N[C@H](C(=O)N[C@@H](CCCNC(=N)N)C(=O)N[C@@H](CCC(N)=O)C(=O)N[C@@H](CCCNC(=N)N)C(=O)N[C@@H](Cc1ccc(O)cc1)C(N)=O)[C@@H](C)O)C(C)C
B2: Compound 119 (peptide)
peptide: Isovaleryl-APEK([Ahx-γGlu-C18 diacid])PEEDATPEESQRYYVSLRHYYNWLTRQRY-NH2
SMILES: CC(C)CC(=O)N[C@@H](C)C(=O)N1CCC[C@H]1C(=O)N[C@@H](CCC(=O)O)C(=O)N[C@@H](CCCCNC(=O)CCCCCNC(=O)CC[C@H](NC(=O)CCCCCCCCCCCCCCCCC(=O)O)C(=O)O)C(=O)N1CCC[C@H]1C(=O)N[C@@H](CCC(=O)O)C(=O)N[C@@H](CCC(=O)O)C(=O)N[C@@H](CC(=O)O)C(=O)N[C@@H](C)C(=O)N[C@H](C(=O)N1CCC[C@H]1C(=O)N[C@@H](CCC(=O)O)C(=O)N[C@@H](CCC(=O)O)C(=O)N[C@@H](CO)C(=O)N[C@@H](CCC(N)=O)C(=O)N[C@@H](CCCNC(=N)N)C(=O)N[C@@H](Cc1ccc(O)cc1)C(=O)N[C@@H](Cc1ccc(O)cc1)C(=O)N[C@H](C(=O)N[C@@H](CO)C(=O)N[C@@H](CC(C)C)C(=O)N[C@@H](CCCNC(=N)N)C(=O)N[C@@H](Cc1c[nH]cn1)C(=O)N[C@@H](Cc1ccc(O)cc1)C(=O)N[C@@H](Cc1ccc(O)cc1)C(=O)N[C@@H](CC(N)=O)C(=O)N[C@@H](Cc1c[nH]c2ccccc12)C(=O)N[C@@H](CC(C)C)C(=O)N[C@H](C(=O)N[C@@H](CCCNC(=N)N)C(=O)N[C@@H](CCC(N)=O)C(=O)N[C@@H](CCCNC(=N)N)C(=O)N[C@@H](Cc1ccc(O)cc1)C(N)=O)[C@@H](C)O)C(C)C)[C@@H](C)O
B3: Compound 120 (peptide)
peptide: Isovaleryl-APAK([Ahx-γGlu-C18 diacid])PEEAATPEEIQRYYVALRHYYNWLTRQRY-NH2
SMILES: CC[C@H](C)[C@H](NC(=O)[C@H](CCC(=O)O)NC(=O)[C@H](CCC(=O)O)NC(=O)[C@@H]1CCCN1C(=O)[C@@H](NC(=O)[C@H](C)NC(=O)[C@H](C)NC(=O)[C@H](CCC(=O)O)NC(=O)[C@H](CCC(=O)O)NC(=O)[C@@H]1CCCN1C(=O)[C@H](CCCCNC(=O)CCCCCNC(=O)CC[C@H](NC(=O)CCCCCCCCCCCCCCCCC(=O)O)C(=O)O)NC(=O)[C@H](C)NC(=O)[C@@H]1CCCN1C(=O)[C@H](C)NC(=O)CC(C)C)[C@@H](C)O)C(=O)N[C@@H](CCC(N)=O)C(=O)N[C@@H](CCCNC(=N)N)C(=O)N[C@@H](Cc1ccc(O)cc1)C(=O)N[C@@H](Cc1ccc(O)cc1)C(=O)N[C@H](C(=O)N[C@@H](C)C(=O)N[C@@H](CC(C)C)C(=O)N[C@@H](CCCNC(=N)N)C(=O)N[C@@H](Cc1c[nH]cn1)C(=O)N[C@@H](Cc1ccc(O)cc1)C(=O)N[C@@H](Cc1ccc(O)cc1)C(=O)N[C@@H](CC(N)=O)C(=O)N[C@@H](Cc1c[nH]c2ccccc12)C(=O)N[C@@H](CC(C)C)C(=O)N[C@H](C(=O)N[C@@H](CCCNC(=N)N)C(=O)N[C@@H](CCC(N)=O)C(=O)N[C@@H](CCCNC(=N)N)C(=O)N[C@@H](Cc1ccc(O)cc1)C(N)=O)[C@@H](C)O)C(C)C
B4: Compound 121 (peptide)
peptide: Isovaleryl-APEK([Ahx-γGlu-C18 diacid])PEADASPEELQRYYVQLRHYYNWLTRQRY-NH2
SMILES: CC(C)CC(=O)N[C@@H](C)C(=O)N1CCC[C@H]1C(=O)N[C@@H](CCC(=O)O)C(=O)N[C@@H](CCCCNC(=O)CCCCCNC(=O)CC[C@H](NC(=O)CCCCCCCCCCCCCCCCC(=O)O)C(=O)O)C(=O)N1CCC[C@H]1C(=O)N[C@@H](CCC(=O)O)C(=O)N[C@@H](C)C(=O)N[C@@H](CC(=O)O)C(=O)N[C@@H](C)C(=O)N[C@@H](CO)C(=O)N1CCC[C@H]1C(=O)N[C@@H](CCC(=O)O)C(=O)N[C@@H](CCC(=O)O)C(=O)N[C@@H](CC(C)C)C(=O)N[C@@H](CCC(N)=O)C(=O)N[C@@H](CCCNC(=N)N)C(=O)N[C@@H](Cc1ccc(O)cc1)C(=O)N[C@@H](Cc1ccc(O)cc1)C(=O)N[C@H](C(=O)N[C@@H](CCC(N)=O)C(=O)N[C@@H](CC(C)C)C(=O)N[C@@H](CCCNC(=N)N)C(=O)N[C@@H](Cc1c[nH]cn1)C(=O)N[C@@H](Cc1ccc(O)cc1)C(=O)N[C@@H](Cc1ccc(O)cc1)C(=O)N[C@@H](CC(N)=O)C(=O)N[C@@H](Cc1c[nH]c2ccccc12)C(=O)N[C@@H](CC(C)C)C(=O)N[C@H](C(=O)N[C@@H](CCCNC(=N)N)C(=O)N[C@@H](CCC(N)=O)C(=O)N[C@@H](CCCNC(=N)N)C(=O)N[C@@H](Cc1ccc(O)cc1)C(N)=O)[C@@H](C)O)C(C)C
B5: Compound 124 (peptide)
peptide: Isovaleryl-APEK([Ahx-γGlu-C18 diacid])PEAAAEPEEIQRYYVSLRHYYNWLTRQRY-NH2
SMILES: CC[C@H](C)[C@H](NC(=O)[C@H](CCC(=O)O)NC(=O)[C@H](CCC(=O)O)NC(=O)[C@@H]1CCCN1C(=O)[C@H](CCC(=O)O)NC(=O)[C@H](C)NC(=O)[C@H](C)NC(=O)[C@H](C)NC(=O)[C@H](CCC(=O)O)NC(=O)[C@@H]1CCCN1C(=O)[C@H](CCCCNC(=O)CCCCCNC(=O)CC[C@H](NC(=O)CCCCCCCCCCCCCCCCC(=O)O)C(=O)O)NC(=O)[C@H](CCC(=O)O)NC(=O)[C@@H]1CCCN1C(=O)[C@H](C)NC(=O)CC(C)C)C(=O)N[C@@H](CCC(N)=O)C(=O)N[C@@H](CCCNC(=N)N)C(=O)N[C@@H](Cc1ccc(O)cc1)C(=O)N[C@@H](Cc1ccc(O)cc1)C(=O)N[C@H](C(=O)N[C@@H](CO)C(=O)N[C@@H](CC(C)C)C(=O)N[C@@H](CCCNC(=N)N)C(=O)N[C@@H](Cc1c[nH]cn1)C(=O)N[C@@H](Cc1ccc(O)cc1)C(=O)N[C@@H](Cc1ccc(O)cc1)C(=O)N[C@@H](CC(N)=O)C(=O)N[C@@H](Cc1c[nH]c2ccccc12)C(=O)N[C@@H](CC(C)C)C(=O)N[C@H](C(=O)N[C@@H](CCCNC(=N)N)C(=O)N[C@@H](CCC(N)=O)C(=O)N[C@@H](CCCNC(=N)N)C(=O)N[C@@H](Cc1ccc(O)cc1)C(N)=O)[C@@H](C)O)C(C)C
B6: Compound 123 (peptide)
peptide: Isovaleryl-APEK([Ahx-γGlu-C18 diacid])PEEDAAPEELQKYYVSLRHYYNWLTRQRY-NH2
SMILES: CC(C)CC(=O)N[C@@H](C)C(=O)N1CCC[C@H]1C(=O)N[C@@H](CCC(=O)O)C(=O)N[C@@H](CCCCNC(=O)CCCCCNC(=O)CC[C@H](NC(=O)CCCCCCCCCCCCCCCCC(=O)O)C(=O)O)C(=O)N1CCC[C@H]1C(=O)N[C@@H](CCC(=O)O)C(=O)N[C@@H](CCC(=O)O)C(=O)N[C@@H](CC(=O)O)C(=O)N[C@@H](C)C(=O)N[C@@H](C)C(=O)N1CCC[C@H]1C(=O)N[C@@H](CCC(=O)O)C(=O)N[C@@H](CCC(=O)O)C(=O)N[C@@H](CC(C)C)C(=O)N[C@@H](CCC(N)=O)C(=O)N[C@@H](CCCCN)C(=O)N[C@@H](Cc1ccc(O)cc1)C(=O)N[C@@H](Cc1ccc(O)cc1)C(=O)N[C@H](C(=O)N[C@@H](CO)C(=O)N[C@@H](CC(C)C)C(=O)N[C@@H](CCCNC(=N)N)C(=O)N[C@@H](Cc1c[nH]cn1)C(=O)N[C@@H](Cc1ccc(O)cc1)C(=O)N[C@@H](Cc1ccc(O)cc1)C(=O)N[C@@H](CC(N)=O)C(=O)N[C@@H](Cc1c[nH]c2ccccc12)C(=O)N[C@@H](CC(C)C)C(=O)N[C@H](C(=O)N[C@@H](CCCNC(=N)N)C(=O)N[C@@H](CCC(N)=O)C(=O)N[C@@H](CCCNC(=N)N)C(=O)N[C@@H](Cc1ccc(O)cc1)C(N)=O)[C@@H](C)O)C(C)C

Target: T1, human NPY2 receptor
Assay: RLB: displacement of 125I-PYY(1-36) from hNPY2R membranes

Row | Binder | Ki [nM]
1 | B1 | 3.53
2 | B2 | 5.73
3 | B3 | 1.49
4 | B4 | 1.45
5 | B5 | 3.07
6 | B6 | 3.65
